The target in the assay is 7S subunit of the lemon shark 19S immunoglobulin (lemon shark, Negaprion brevirostris). Description: AUC.

As usually defined, the stoichiometry N is the number of molecules, sites or subunits per partner or assembly. As to “7S subunit of the lemon shark 19S immunoglobulin (complex)”, the stoichiometry N stood at 5.

The values are drawn from article PMC2138209.
